No end group written: not given here.

Data set [1] deals with the molecule itself. In words: 2D solid-state NMR (DARR) on fibrils, self-association.
Data set [2] has as its target Aβ1-42 peptide (SEQ ID NO: 157) (Homo sapiens (Human), UniProt P05067 672-713). In words: cell-based or functional assay.

B1: truncated glycophorin A peptide GpA70-86 (SEQ ID NO: 158) (peptide)
peptide: EPEITLIIFGVMAGVIG
modifications: not fully specified
notes: 17-residue fragment of glycophorin A, residues 70-86, that forms fibrils; NMR samples were 13C-labelled at Gly79, Gly83 or the Met81 methyl; also called truncated GpA; glycophorin A transmembrane peptide fragment
Consider B1, for which the binding result in data set [1] is given as “binds”. Take RGTFEGKF-NH2 (not fully specified; printed as RGTFEGKF-NH2) [amyloid fibril inhibitor protein RGTFEGKF-NH2 (SEQ ID NO: 1)]: the “thioflavin T fluorescence, inhibition of fibrillization at Aβ1-42:I1 molar ratio 1:20” value in data set [2] was 70%.

For the origin of these results see patent US20060062797A1 (RESEARCH FOUNDATION OF STATE UNIVERSITY OF NEW YORK AT …, published 2006).
